In publication PMC5472591, “Mechanical stability of talin rod controls cell migration and substrate sensing” (Scientific Reports, 2017):

Molecular target: the molecule itself
Experiment: SEC-MALS; SEC on Superdex 200 10/300 GL with inline right angle / static light scattering detector; 200 ug protein injected; 50 mM NaH3PO4, 150 mM NaCl pH 7.2; 0.5 ml/min; 20 °C; detector calibrated with the monomeric peak of BSA

B1: talin-1 rod R3 subdomain fragment (amino acids 795-911) 4S mutant, His6-tagged (domain or fragment, mouse)
chain: SSSGPSASGTGAGRYDQATDTSLTVTENSFSSMGDAGEMVRQARILAQATSDLVNAIKADAEGESDLENSRKLLSAAKILADATAKMVEAAKGAAAHPDSEEQQQRSREAAEGSRMATNAAAQNAIKK
notes: 11 residue linker between the N-terminal His6-tag and the talin fragment; talin-1, mouse, R3 subdomain, residues 795-911, with all four destabilizing point mutations; not shown: His6, N-terminal, kept
  stoichiometry N: 2
